From publication PMC9982066, “Inhibition of Ehrlichia chaffeensis infection by cell-permeable macrocyclic peptides that bind type IV secretion effector Etf-1” (PNAS Nexus, 2023)
Starred links: 1 amine or outer side, 2 acyl side, 3 side chain; linkers in the order of their positions; H or OH if unused. Positions of bridges follow the written chain, without caps; N, C: chain ends. Non-standard residues stand in square brackets, D forms with d. No end group written: not given here. Trimesoyl = O=C(c1cc(C(=O)[*:2])cc(C(=O)[*:3])c1)[*:1]; Phe(3,4-Cl2) = N[C@@H](Cc1ccc(Cl)c(Cl)c1)C(=O)O; Phe(4-CF3) = N[C@@H](Cc1ccc(C(F)(F)F)cc1)C(=O)O; Phe(3-Cl) = N[C@@H](Cc1cccc(Cl)c1)C(=O)O; Phe(4-Cl) = N[C@@H](Cc1ccc(Cl)cc1)C(=O)O; Phe(4-F) = N[C@@H](Cc1ccc(F)cc1)C(=O)O; Phe(4-Me) = Cc1ccc(C[C@H](N)C(=O)O)cc1; 2Nal = N[C@@H](Cc1ccc2ccccc2c1)C(=O)O; d1Nal = N[C@H](Cc1cccc2ccccc12)C(=O)O; d2Nal = N[C@H](Cc1ccc2ccccc2c1)C(=O)O; βAsp = O=C(O)[C@H](CC(=O)[*:2])N[*:1]; hPhe = N[C@@H](CCc1ccccc1)C(=O)O; Phg = N[C@H](C(=O)O)c1ccccc1; Nle = CCCC[C@H](N)C(=O)O; Orn = NCCC[C@H](N)C(=O)O; Dap = NC[C@H](N)C(=O)O; TMA = not defined here; βAla = NCCC(=O)O

B1: macrocyclic peptide B13, FAM-labelled (peptide)
chain: [dE]H[dF][dE]HA[Dap][dF][2Nal]R[dR]R[Dap]-{βAla-βAla-Lys(FAM)}
modifications: linker 7-13 via TMA; reading uncertain; also: TMA third attachment point not given here
B2: macrocyclic peptide B22, FAM-labelled (peptide)
chain: [dV][Orn][dN]H[dA][Dap]F[d2Nal][dR]R[dR]R[Dap]-{βAla-βAla-Lys(FAM)}
modifications: linker 6-13 via TMA; reading uncertain; also: TMA third attachment point not given here
B3: macrocyclic peptide B17, FAM-labelled (peptide)
chain: [Phg][dF]GDY[Dap]F[d2Nal][dR]R[dR]R[Dap]-{βAla-βAla-Lys(FAM)}
modifications: linker 6-13 via TMA; reading uncertain; also: TMA third attachment point not given here
B4: macrocyclic peptide B7-1, FAM-labelled (peptide)
chain: YHQ[dP]S[dA][Dap]F[d2Nal][dR]R[dR]R[Dap]-{βAla-βAla-Lys(FAM)}
modifications: linker 7-14 via TMA; reading uncertain; also: TMA third attachment point not given here
B5: macrocyclic peptide B7-10, FAM-labelled (peptide)
chain: YHQ[dP]S[dL][Dap]F[d2Nal][dR]A[dR]R[Dap]-{βAla-βAla-Lys(FAM)}
modifications: linker 7-14 via TMA; reading uncertain; also: TMA third attachment point not given here
B6: macrocyclic peptide B7-11, FAM-labelled (peptide)
chain: YHQ[dP]S[dL][Dap]F[d2Nal][dR]R[dA]R[Dap]-{βAla-βAla-Lys(FAM)}
modifications: linker 7-14 via TMA; reading uncertain; also: TMA third attachment point not given here
B7: FAM-labeled macrocyclic peptide B7-131-5 (peptide)
chain: YH[dP][d2Nal]DA[dL][Dap][Phe(4-Cl)][d2Nal][dR]R[dR]R[Dap]-{βAla-βAla-Lys(FAM)}
modifications: linker 8-15 via TMA; reading uncertain; also: TMA third attachment point not given here
B8: FAM-labeled macrocyclic peptide B7-133-9 (peptide)
chain: Y[dV][dL][dY][Phe(4-F)][dL][Dap][Phe(4-Cl)][d2Nal][dR]R[dR]R[Dap]-{βAla-βAla-Lys(FAM)}
modifications: linker 7-14 via TMA; reading uncertain; also: TMA third attachment point not given here
B9: FAM-labeled macrocyclic peptide B7-131-1 (peptide)
chain: Y[dN][d2Nal]S[Phg][dL][dL][Dap][Phe(4-Cl)][d2Nal][dR]R[dR]R[Dap]-{βAla-βAla-Lys(FAM)}
modifications: linker 8-15 via TMA; reading uncertain; also: TMA third attachment point not given here
B10: FAM-labeled macrocyclic peptide B7-133-8 (peptide)
chain: Y[d2Nal]Q[D‑beta‑homoalanine][dP][dL][Dap][Phe(4-Cl)][d2Nal][dR]R[dR]R[Dap]-{βAla-βAla-Lys(FAM)}
modifications: linker 7-14 via TMA; reading uncertain; also: TMA third attachment point not given here
B11: FAM-labeled macrocyclic peptide B7 (peptide)
chain: YHQ[dP]S[dL][Dap]F[d2Nal][dR]R[dR]R[Dap]-{βAla-βAla-Lys(FAM)}
modifications: linker 7-14 via TMA; reading uncertain; also: TMA third attachment point not given here
B12: FAM-labeled macrocyclic peptide B7-131-4 (peptide)
chain: Y[Phe(4-F)]D[Phg][dY][βAsp][dL][Dap][Phe(4-Cl)][d2Nal][dR]R[dR]R[Dap]-{βAla-βAla-Lys(FAM)}
modifications: linker 8-15 via TMA; reading uncertain; also: TMA third attachment point not given here
B13: FAM-labeled macrocyclic peptide B7-133-3 (peptide)
chain: Y[dF]D[Nle][dN][dL][Dap][Phe(4-Cl)][d2Nal][dR]R[dR]R[Dap]-{βAla-βAla-Lys(FAM)}
modifications: linker 7-14 via TMA; reading uncertain; also: TMA third attachment point not given here

target: T1, Ehrlichia translocated factor-1 (Etf-1) (Ehrlichia chaffeensis, UniProt Q2GG12 1-380); experiment: fluorescence polarisation; conditions: both partners purified

B1 and B2 cannot be ordered by Kd: > 25 µM for the first, > 25 µM for the second.

For B3, the Kd was > 25 µM.

target: T1, Ehrlichia translocated factor-1 (Etf-1); experiment: fluorescence polarisation; conditions: both partners purified; remark: another data set of the same source

Compared with B4, YHQ[dP]S[dL][Dap][Phe(4-CF3)][d2Nal][dR]R[dR]R[Dap]-{βAla-βAla-Lys(FAM)} (linker N-7-14 via Trimesoyl; not fully specified (N-terminus)) [macrocyclic peptide B7-20, FAM-labelled] is 10-fold lower in Kd: 18.9 ± 6.9 µM for the first, 1.8 ± 0.2 µM for the second.

Going from YHQ[dP]S[dL][Dap][hPhe][d2Nal][dR]R[dR]R[Dap]-{βAla-βAla-Lys(FAM)} (linker N-7-14 via Trimesoyl; not fully specified (N-terminus)) [macrocyclic peptide B7-15, FAM-labelled] to B5, the Kd rises from 3.4 ± 0.6 µM to 30 ± 3 µM (8.8-fold).

Compared with YHQ[dP]S[dL][Dap][Phe(3-Cl)][d2Nal][dR]R[dR]R[Dap]-{βAla-βAla-Lys(FAM)} (linker N-7-14 via Trimesoyl; not fully specified (N-terminus)) [macrocyclic peptide B7-17, FAM-labelled], YAQ[dP]S[dL][Dap]F[d2Nal][dR]R[dR]R[Dap]-{βAla-βAla-Lys(FAM)} (linker N-7-14 via Trimesoyl; not fully specified (N-terminus)) [macrocyclic peptide B7-5, FAM-labelled] is 3.2-fold higher in Kd: 3.4 ± 0.4 µM for the first, 10.9 ± 1.5 µM for the second. The first binds more tightly here.

Going from YHQ[dP]S[dL][Dap][Phe(3,4-Cl2)][d2Nal][dR]R[dR]R[Dap]-{βAla-βAla-Lys(FAM)} (linker N-7-14 via Trimesoyl; not fully specified (N-terminus)) [macrocyclic peptide B7-19, FAM-labelled] to YHQ[dP]S[dL][Dap][Phe(4-F)][d2Nal][dR]R[dR]R[Dap]-{βAla-βAla-Lys(FAM)} (linker N-7-14 via Trimesoyl; not fully specified (N-terminus)) [macrocyclic peptide B7-18, FAM-labelled], the Kd rises from 1.6 ± 0.2 µM to 3 ± 0.5 µM (1.9-fold). The first binds more tightly here.

YHQ[dP]S[dL][Dap][Phe(4-Cl)][d1Nal][dR]R[dR]R[Dap]-{βAla-βAla-Lys(FAM)} (linker N-7-14 via Trimesoyl; not fully specified (N-terminus)) [macrocyclic peptide B7-23, FAM-labelled] and YHQ[dP]S[dL][Dap][Phg][d2Nal][dR]R[dR]R[Dap]-{βAla-βAla-Lys(FAM)} (linker N-7-14 via Trimesoyl; not fully specified (N-terminus)) [macrocyclic peptide B7-14, FAM-labelled] are within error of each other in Kd: 4.7 ± 0.5 µM for the first, 5.8 ± 0.9 µM for the second.

YHA[dP]S[dL][Dap]F[d2Nal][dR]R[dR]R[Dap]-{βAla-βAla-Lys(FAM)} (linker N-7-14 via Trimesoyl; not fully specified (N-terminus)) [macrocyclic peptide B7-4, FAM-labelled] and YHQ[dA]S[dL][Dap]F[d2Nal][dR]R[dR]R[Dap]-{βAla-βAla-Lys(FAM)} (linker N-7-14 via Trimesoyl; not fully specified (N-terminus)) [macrocyclic peptide B7-3, FAM-labelled] are within 1.5-fold of each other in Kd: 7.4 ± 0.9 µM for the first, 5.8 ± 0.5 µM for the second.

First: YHQ[dP]S[dL][Dap]F[d2Nal][dA]R[dR]R[Dap] (linker 7-14 via TMA; not fully specified (C-terminus); reading uncertain) [macrocyclic peptide B7-9, FAM-labelled]
Second: AHQ[dP]S[dL][Dap]F[d2Nal][dR]R[dR]R[Dap] (linker 7-14 via TMA; not fully specified (C-terminus); reading uncertain) [macrocyclic peptide B7-6, FAM-labelled]
The Kd of the first is 2.5-fold higher: 30 ± 7 µM for the first, 11.9 ± 3.4 µM for the second.

First: B6
Second: YHQ[dP]S[dL][Dap][2Nal][d2Nal][dR]R[dR]R[Dap]-{βAla-βAla-Lys(FAM)} (linker N-7-14 via Trimesoyl; not fully specified (N-terminus)) [macrocyclic peptide B7-21, FAM-labelled]
The Kd of the first is 15-fold higher: 28 ± 6 µM for the first, 1.9 ± 0.2 µM for the second.

YHQ[dP]S[dL][Dap][Phe(4-Cl)][3‑(3-benzothienyl)‑D‑Ala][dR]R[dR]R[Dap]-{βAla-βAla-Lys(FAM)} (linker N-7-14 via Trimesoyl; not fully specified (N-terminus)) [macrocyclic peptide B7-22, FAM-labelled] and YHQ[dP]A[dL][Dap]F[d2Nal][dR]R[dR]R[Dap]-{βAla-βAla-Lys(FAM)} (linker N-7-14 via Trimesoyl; not fully specified (N-terminus)) [macrocyclic peptide B7-2, FAM-labelled] are within error of each other in Kd: 5.7 ± 0.9 µM for the first, 6.7 ± 0.8 µM for the second.

Going from YHQ[dP]S[dL][Dap]F[d2Nal][dR]R[dR]A[Dap]-{βAla-βAla-Lys(FAM)} (linker N-7-14 via Trimesoyl; not fully specified (N-terminus)) [macrocyclic peptide B7-12, FAM-labelled] to YHQ[dP]S[dL][Dap][Phe(4-Me)][d2Nal][dR]R[dR]R[Dap]-{βAla-βAla-Lys(FAM)} (linker N-7-14 via Trimesoyl; not fully specified (N-terminus)) [macrocyclic peptide B7-13, FAM-labelled], the Kd falls from 15 ± 2 µM to 6.3 ± 0.8 µM (2.4-fold). The second binds more tightly here.

target: Ehrlichia translocated factor-1 (Etf-1), recombinant 6×His-Etf-1 fusion protein (E. chaffeensis, UniProt Q2GG12 1-380); experiment: fluorescence polarisation; conditions: both partners purified

B7 and B8 are within error of each other in Kd: 2.9 ± 0.4 µM for the first, 2.2 ± 0.3 µM for the second.

B9 and B10 are within 1.5-fold of each other in Kd: 1.7 ± 0.2 µM for the first, 1.3 ± 0.1 µM for the second.

First: B11
Second: B12
The Kd of the first is 4.3-fold higher: 6.5 ± 0.7 µM for the first, ~1.5 µM for the second.

For B13, the Kd was 2.4 ± 0.3 µM.
